Publication PMC3814787, “Potential Regulatory Interactions of Escherichia coli RraA Protein with DEAD-box Helicases* ^([image sbox.jpg])” (The Journal of Biological Chemistry, 2013)

B1: CsdAΔ (truncated CsdA, residues 1 to 443) (domain or fragment, Escherichia coli, UniProt P0A9P6 1-443, looked up)
chain: MAEFETTFADLGLKAPILEALNDLGYEKPSPIQAECIPHLLNGRDVLGMAQTGSGKTAAFSLPLLQNLDPELKAPQILVLAPTRELAVQVAEAMTDFSKHMRGVNVVALYGGQRYDVQLRALRQGPQIVVGTPGRLLDHLKRGTLDLSKLSGLVLDEADEMLRMGFIEDVETIMAQIPEGHQTALFSATMPEAIRRITRRFMKEPQEVRIQSSVTTRPDISQSYWTVWGMRKNEALVRFLEAEDFDAAIIFVRTKNATLEVAEALERNGYNSAALNGDMNQALREQTLERLKDGRLDILIATDVAARGLDVERISLVVNYDIPMDSESYVHRIGRTGRAGRAGRALLFVENRERRLLRNIERTMKLTIPEVELPNAELLGKRRLEKFAAKVQQQLESSDLDQYRALLSKIQPTAEGEELDLETLAAALLKMAQGERTLIVPPD
notes: CsdA (DeaD), DEAD-box RNA helicase, Escherichia coli, residues 1 to 443, without the C-terminal extension; Vector pROEX-HT, gift of M. Dreyfus and T. Bizebard; also called CsdA (DeaD); source: E. coli BL21(DE3), purified (HisTrap FF)
B2: Regulator of ribonuclease activity A (RraA) (natural protein, Escherichia coli)
chain: MKYDTSELCDIYQEDVNVVEPLFSNFGGRASFGGQIITVKCFEDNGLLYDLLEQNGRGRVLVVDGGGSVRRALVDAELARLAVQNEWEGLVIYGAVRQVDDLEELDIGIQAMAAIPVGAAGEGIGESDVRVNFGGVTFFSGDHLYADNTGIILSEDPLDIE
notes: RraA, regulator of ribonuclease activity A, Escherichia coli; ring-shaped homotrimer (52 kDa); residues 2-159 modelled in the crystal; Trimer at 150 mM NaCl; about 100 kDa (hexamer) at 300 mM NaCl
B3: DEAD-box helicase RhlB (enzyme, Escherichia coli, UniProt P0A8J8 1-421, looked up)
chain: MSKTHLTEQKFSDFALHPKVVEALEKKGFHNCTPIQALALPLTLAGRDVAGQAQTGTGKTMAFLTSTFHYLLSHPAIADRKVNQPRALIMAPTRELAVQIHADAEPLAEATGLKLGLAYGGDGYDKQLKVLESGVDILIGTTGRLIDYAKQNHINLGAIQVVVLDEADRMYDLGFIKDIRWLFRRMPPANQRLNMLFSATLSYRVRELAFEQMNNAEYIEVEPEQKTGHRIKEELFYPSNEEKMRLLQTLIEEEWPDRAIIFANTKHRCEEIWGHLAADGHRVGLLTGDVAQKKRLRILDEFTRGDLDILVATDVAARGLHIPAVTHVFNYDLPDDCEDYVHRIGRTGRAGASGHSISLACEEYALNLPAIETYIGHSIPVSKYNPDALMTDLPKPLRLTRPRTGNGPRRTGAPRNRRRSG
notes: RhlB, DEAD-box RNA helicase, Escherichia coli; monomer of 47 kDa as printed; The printed mass of 47 kDa fits the whole protein; 'full-length RhlB' is said only of the crystallisation trials
B4: DEAD-box helicase SrmB (enzyme, Escherichia coli, UniProt P21507 1-444, looked up)
chain: MTVTTFSELELDESLLEALQDKGFTRPTAIQAAAIPPALDGRDVLGSAPTGTGKTAAYLLPALQHLLDFPRKKSGPPRILILTPTRELAMQVSDHARELAKHTHLDIATITGGVAYMNHAEVFSENQDIVVATTGRLLQYIKEENFDCRAVETLILDEADRMLDMGFAQDIEHIAGETRWRKQTLLFSATLEGDAIQDFAERLLEDPVEVSANPSTRERKKIHQWYYRADDLEHKTALLVHLLKQPEATRSIVFVRKRERVHELANWLREAGINNCYLEGEMVQGKRNEAIKRLTEGRVNVLVATDVAARGIDIPDVSHVFNFDMPRSGDTYLHRIGRTARAGRKGTAISLVEAHDHLLLGKVGRYIEEPIKARVIDELRPKTRAPSEKQTGKPSKKVLAKRAEKKKAKEKEKPRVKKRHRDTKNIGKRRKPSGTGVPPQTTEE
notes: SrmB, DEAD-box RNA helicase, Escherichia coli; monomer of 50 kDa as printed; only residues 219-388 (C-terminal RecA-like domain) are resolved in the crystal; source: E. coli BL21(DE3), purified (ammonium sulfate precipitation, heparin column)

What was measured:
[1] = target: the molecule itself; assay: AUC; sedimentation velocity, 20 °C; 300 mM NaCl, 50 mM HEPES pH 7.5, 10% glycerol, 2 mM tris(2-carboxyethyl)phosphine; experiments with CsdAΔ; about 10 μM
DEAD-box helicase SrmB = target: B4; assay: AUC; sedimentation velocity, absorbance at 280 nm, 20 °C; 150 mM NaCl, 50 mM HEPES pH 7.5, 10% glycerol; mixtures at 1:1 helicase:RraA trimer, about 10 μM; conditions: both partners purified
DEAD-box helicase DbpA = target: T1, DEAD-box helicase DbpA (Escherichia coli, UniProt P21693 1-457); assay: as above; conditions: both partners purified
T1 construct: DbpA, DEAD-box RNA helicase, Escherichia coli; monomer of 49 kDa as printed; source: E. coli BL21(DE3), purified (ammonium sulfate precipitation, heparin column)
T1 sequence (looked up): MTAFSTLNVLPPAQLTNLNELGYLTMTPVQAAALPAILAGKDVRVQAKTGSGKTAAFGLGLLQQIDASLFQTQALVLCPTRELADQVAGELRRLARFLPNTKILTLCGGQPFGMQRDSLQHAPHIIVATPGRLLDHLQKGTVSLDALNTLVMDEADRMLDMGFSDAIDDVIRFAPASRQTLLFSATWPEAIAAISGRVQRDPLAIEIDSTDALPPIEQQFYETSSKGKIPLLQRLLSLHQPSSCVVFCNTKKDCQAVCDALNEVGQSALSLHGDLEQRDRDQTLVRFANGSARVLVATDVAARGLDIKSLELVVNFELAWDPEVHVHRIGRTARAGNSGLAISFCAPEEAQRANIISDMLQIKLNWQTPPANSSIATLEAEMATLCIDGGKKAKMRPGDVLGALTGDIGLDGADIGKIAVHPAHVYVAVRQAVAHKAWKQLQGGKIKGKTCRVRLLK

[2] = target: the molecule itself; assay: as above
[3] = target: the molecule itself; assay: crystal structure; RraA and RhlB(398-421) mixed at 1:20; 74.8 μM RraA, 1.48 mM peptide, 423 mM NaCl, 99 mM (NH4)2SO4; hanging drop, 16 °C; 100 mM sodium citrate pH 5.4, 32% methylpentanediol, 200 mM ammonium acetate; 2.8 Å
[4] = target: B1; assay: native gel or EMSA; 5% native polyacrylamide gel, Tris glycine running buffer with 1 mM DTT, 4 °C; helicase 10 μM and RraA 30 μM (2.5 and 7.5 μM for the mutants of Figure 3); bands of the complex cut out and analysed by SDS-PAGE; conditions: both partners purified
DEAD-box helicase RhlE = target: T2, DEAD-box helicase RhlE (Escherichia coli, UniProt P25888 1-454); assay: as above; conditions: both partners purified
T2 construct: RhlE, DEAD-box RNA helicase, Escherichia coli; source: E. coli BL21(DE3), purified (ammonium sulfate precipitation, heparin column)
T2 sequence (looked up): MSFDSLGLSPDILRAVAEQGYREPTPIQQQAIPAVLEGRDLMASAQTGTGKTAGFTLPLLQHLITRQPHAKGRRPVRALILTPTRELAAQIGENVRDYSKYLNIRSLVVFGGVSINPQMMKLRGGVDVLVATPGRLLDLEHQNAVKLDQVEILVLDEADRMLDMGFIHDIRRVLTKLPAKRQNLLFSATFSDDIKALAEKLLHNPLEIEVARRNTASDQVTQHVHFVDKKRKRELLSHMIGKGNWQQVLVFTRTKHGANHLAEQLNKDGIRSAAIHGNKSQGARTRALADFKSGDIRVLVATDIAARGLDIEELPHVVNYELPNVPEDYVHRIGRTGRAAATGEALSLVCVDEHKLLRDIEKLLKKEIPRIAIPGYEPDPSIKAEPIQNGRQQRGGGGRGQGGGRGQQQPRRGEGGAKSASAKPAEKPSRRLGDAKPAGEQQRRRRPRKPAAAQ

[5] = target: B2; assay: AUC; sedimentation velocity, absorbance at 280 nm, 20 °C; 150 mM NaCl, 50 mM HEPES pH 7.5, 10% glycerol; mixtures at 1:1 helicase:RraA trimer, about 10 μM; conditions: both partners purified
[6] = target: B2; assay: SAXS; SrmB and RraA mixed at a 1:3 molar ratio; 150 mM NaCl, 20 mM HEPES pH 7.0, 5% glycerol, 2 mM DTT; 15 °C; 5 to 55 μM; ab initio envelope; conditions: both partners purified

Question: B1 was tested. Which “stoichiometry N” value [1] did it give?
Answer: 2

Question: With B2 as the binder, how does the Kd (DEAD-box helicase SrmB) read?
Answer: < 10 µM

Question: Does B2 bind (DEAD-box helicase DbpA)?
Answer: binds

Question: What about the “stoichiometry N” value [2] of the same binder?
Answer: 3

Question: What about the “stoichiometry N” value [3] of the same binder?
Answer: 6

Question: Does B2 bind [4]?
Answer: binds

Question: Does B2 bind (DEAD-box helicase RhlE)?
Answer: binds

Question: Which “stoichiometry N” value [5] does the source give for B3 here?
Answer: 1 helicase monomer per RraA trimer

Question: B4 was tested. Which “stoichiometry N” value [6] did it give?
Answer: 1 SrmB per RraA trimer

Question: What about the “stoichiometry N” value [5] of the same binder?
Answer: 1 helicase monomer per RraA trimer
